Results on 13 molecules are retold here after patent US20240400689A1 (ANTENGENE BIOLOGICS, published 2024).

Residue numbers refer to the chain shown, from its start.

To fix the notation:
T1: human CD276 protein (human, UniProt Q5ZPR3 29-534)
T1 construct: whole, on cells; for SKOV3 and the other cancer lines the protein is the cells' own; also called B7-H3; B7H3
T1 sequence (looked up): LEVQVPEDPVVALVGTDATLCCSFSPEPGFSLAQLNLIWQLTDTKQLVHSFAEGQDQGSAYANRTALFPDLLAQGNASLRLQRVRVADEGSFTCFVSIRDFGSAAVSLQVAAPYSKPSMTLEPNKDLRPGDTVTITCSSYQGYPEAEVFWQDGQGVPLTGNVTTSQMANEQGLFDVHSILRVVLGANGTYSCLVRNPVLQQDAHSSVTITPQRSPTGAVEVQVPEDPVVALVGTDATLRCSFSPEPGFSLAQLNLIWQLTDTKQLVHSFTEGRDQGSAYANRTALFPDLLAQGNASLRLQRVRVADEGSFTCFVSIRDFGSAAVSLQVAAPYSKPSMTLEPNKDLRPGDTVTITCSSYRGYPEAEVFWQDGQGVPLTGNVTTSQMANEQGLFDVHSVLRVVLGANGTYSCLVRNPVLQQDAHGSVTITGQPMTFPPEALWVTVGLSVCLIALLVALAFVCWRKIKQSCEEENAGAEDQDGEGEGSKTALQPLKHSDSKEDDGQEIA

T2: HUMAN B7H3 (Biacore analyte) (human, UniProt Q5ZPR3 29-461, limits assumed)
T2 construct: also called hB7H3
T2 sequence (looked up): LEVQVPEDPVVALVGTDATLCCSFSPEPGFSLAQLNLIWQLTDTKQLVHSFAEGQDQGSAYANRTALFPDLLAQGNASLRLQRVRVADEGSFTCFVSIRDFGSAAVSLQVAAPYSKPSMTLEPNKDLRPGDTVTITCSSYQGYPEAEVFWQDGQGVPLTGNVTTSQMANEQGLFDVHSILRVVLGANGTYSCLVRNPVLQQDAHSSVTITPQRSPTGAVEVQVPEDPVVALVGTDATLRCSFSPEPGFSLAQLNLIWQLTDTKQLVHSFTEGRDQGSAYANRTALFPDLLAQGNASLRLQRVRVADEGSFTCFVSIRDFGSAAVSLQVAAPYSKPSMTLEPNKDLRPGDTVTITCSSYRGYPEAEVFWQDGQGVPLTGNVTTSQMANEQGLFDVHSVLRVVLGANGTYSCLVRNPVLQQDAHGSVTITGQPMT

B1: 7-E1-F8-F6 (human IgG1 chimeric antibody) (antibody, V domains shown)
VH: QVQLQQSGPELVKPGASVQMSCKASGYTFTDYVISWVNQRTGQGLEWIGEIYPRSGNTYYNEKFKGKATLTADKSSNTAYMQLSSLTSEDSAVYFCARFDIAYSFDYWGQGTTLTVSS
VL: DVVMTQTPLSLPVSLGDQASISCRSTQSLVHSNGVTYLHWYLQKPGQSPKLLIYKVSNRFSGVPDRFSGSGSGTDFTLKISRVEAEDLGVYFCSQGTHVPWTFGGGTKLEIK
notes: human IgG1 chimeric antibody of the mouse clone
B2: 16-C6-F7-F5 (human IgG1 chimeric antibody) (antibody, V domains shown)
VH: QIQLVQSGPEVKKPGETVKISCKASGYTFTKYGINWVKQAPGEGLKWMGWIWTYTGKPTYGDDFKGRFAFSLETSASTAYLQISDLKIEDMATYFCARDDGYYYTMNYWGQGTSVTVSS
VL: B1 VL with V2I, T26S, V30L, S32T, V35D, P45A, S48P, G96S, V99I
notes: as for B1
B3: 30-C7-C11-D4 (human IgG1 chimeric antibody) (antibody, V domains shown)
VH: EVQLVESGPGLVKPSQSLSLTCTVTGYSITSDYAWNWIRQFPGNKLEWMGYISHSGSTSYNPSLKSRISITRDTSKNQFFLQLNSVTTEDTATYYCARSLGRRWYFDVWGAGTTVTVSS
VL: DIVMTQSPSSLAMSVGQKVTLSCKSSQSLLNSSTQKNYLAWYQQKPGQSPKLLVYFASTRDSGVPDRFIGSGSGTEFTLTISSVQAEDLADYFCQQHYIIPFTFGAGTKLEIK
notes: as for B1
B4: 18-F9-D8-G7 (human IgG1 chimeric antibody) (antibody, V domains shown)
VH: EVQLQQSGPELVRPGVSVKISCKGSGYTFTDYAMHWVKQSHAQSLEWIGIINTYSGDTNYNQKFKGKATMTVDKSSSTAYMGLARLTSEDSAIFYCARGGGNYPYWYFDVWGAGTTVTVSS
VL: ENVLTQSPAIMSASPGEKVTMTCRASSSVSSSYLHWYQQKSGDSPKLWIYSTSNLASGVPARFSGSGSGTSYSLTISSVEAEDAATYYCQQFSVYPLTFGAGTKLEIK
notes: as for B1
B5: 6-D8-E7-A11 (human IgG1 chimeric antibody) (antibody, V domains shown)
VH: QVHLQQPGAELVKPGASVKLSCKASGYTFTNYWMHWVKRRPGQGLEWIGMIHPNSGTTSFNEKFKSKATLTVDKSSSTAYMQLSSLTSEDSAVYYCAGYYGSSFSWFTYWGQGTLVTVSA
VL: QAVVTQESALTTSPGGTVILTCRSSTGAVTTSNFANWVQEKPDHLFTGLIGGTSNRAPGVPVRFSGSLIGDKAALTITGAQTEDDAMYFCALWYSTHYVFGGGTKVTVL
notes: as for B1
B6: 25-D3-G4-C6 (human IgG1 chimeric antibody) (antibody, V domains shown)
VH: EIQLQQTGPELVKPGASVKISCKASGYSFTDYIILWVKQSHGMSLEWIGNINPYYNSTYYNLKFKGKATLTVDKSSSTAYMQLDSLTSEDSAVYYCARDSFDWYFGVWGAGTTVTVSS
VL: DVVMTQTPLSLPVSLGDQASISCRSSQSLVHSNGNTYLHWYLQKPGQSPKLLIYKVSNRFSGVPDRFSGSGSGTDFTLKISRVETEDLGIYFCSQSTHVPPLTFGAGTKLELK
notes: as for B1
B7: hVH1-hVL5-30 (antibody, V domains shown)
VH: QVQLQESGPGLVKPSQTLSLTCTVSGYSITSDYAWNWIRQHPGKGLEWIGYISHSGSTSYNPSLKSRVTISRDTSKNQFSLKLSSVTAADTAVYYCARSLGRRWYFDVWGQGTTVTVSS
VL: DIVMTQSPLSLPVTPGEPASISCKSSQSLLNSSTQKNYLAWYLQKPGQSPQLLIYFASTRDSGVPDRFSGSGSGTDFTLKISRVEAEDLGVYFCQQHYIIPFTFGQGTKLEIK
B8: hVH2-hVL1-30 (antibody, V domains shown)
VH: B7 VH with Q16E, H41P
VL: DIQMTQSPSSLSASVGDRVTITCKSSQSLLNSSTQKNYLAWYQQKPGKAPKLLIYFASTRDSGVPSRFSGSGSGTDFTLTISSLQPEDLATYFCQQHYIIPFTFGQGTKLEIK
B9: hVH3-hVL2-30 (antibody, V domains shown)
VH: B7 VH with Q16E, H41P
VL: DIVMTQSPDSLAVSLGERATINCKSSQSLLNSSTQKNYLAWYQQKPGQPPKLLIYFASTRDSGVPDRFSGSGSGTDFTLTISSLQAEDLAVYFCQQHYIIPFTFGQGTKLEIK
B10: hVH4-hVL5-30 (antibody, V domains shown)
VH: B7 VH with T23A, S25Y, H41P
VL: B7 VL
B11: hVH4-hVL2-30 (antibody, V domains shown)
VH: B7 VH with T23A, S25Y, H41P
VL: B9 VL
B12: hVH3-hVL5-30 (antibody, V domains shown)
VH: B7 VH with Q16E, H41P
VL: B7 VL
B13: mVH-mVL1-30 (antibody, V domains shown)
VH: B3 VH
VL: B3 VL with N31Q

The first test addresses T1, human CD276 protein. The test can be described thus: FACS on SKOV3 cells. In outline:
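Human IgG1 chimeric antibodies were tested for binding to trypsin-detached SKOV3 ovarian cancer cells by flow cytometry, with cells washed in FACS buffer and kept in the dark before acquisition. Titration read-out was MFI plotted against antibody concentration (nM).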
On to B1, for which it took 0.982 µg/mL to reach a half-maximal effect (EC50) and the “MFI (Max)” value worked out at 3380.
The corresponding values for B2 are 0.186 µg/mL and 5350.
The corresponding values for B3 are 0.282 µg/mL and 4270.
Regarding B4, the 50% effective concentration (EC50) (usually the concentration that produces a half-maximal response) stood at 0.286 µg/mL and the “MFI (Max)” value was determined as 4610.
Regarding B5, the EC50 came out at 0.402 µg/mL and the “MFI (Max)” value was 2830.
For B6 the same measures were 1.27 µg/mL and 3450.

Another test addresses T1, human CD276 protein. The test can be described thus: cell-based or functional assay.
As for B1, the “EC50 of antibody induced ADCC effect on SKOV3” value stood at 0.0177 µg/mL.
Consider B2, for which the “EC50 of antibody induced ADCC effect on SKOV3” value came out at 0.00664 µg/mL.
On the same count and under the same terms, as for B3, the figure is 0.0327 µg/mL; as for B4, 0.503 µg/mL.
Same read-out and setting: then B5, with 0.0668 µg/mL; and B6, with 0.0372 µg/mL.

A further test deals with T1, human CD276 protein. The experiment in a line: cell-based or functional assay. This is another data set of the same source.
As for B1, the “EC50 of antibody induced CDC effect” value came out at 1.69 nM and the “Top cytotoxicity (%), CDC” value turned out to be 91.9%.
The corresponding values for B2 are 1.28 nM and 92.1%.
The corresponding values for B3 are 3.21 nM and 60.3%.
For B4 the same measures were 2.44 nM and 70.3%.
B5: the “EC50 of antibody induced CDC effect” value stood at 1.57 nM and the “Top cytotoxicity (%), CDC” value was determined as 92.5%.
The corresponding values for B6 are 2.41 nM and 89.7%.

The target in another test is T1, human CD276 protein. The test can be described thus: cell-based or functional assay. This is another data set of the same source.
In the case of B1, the “IC50 of indirect ADC cytotoxicity on SKOV3” value turned out to be 0.028 nM.
Still for that read-out and setting: as for B2, the figure is 0.009 nM; as for B4, 0.014 nM.
The same measure, in the same setting: then B5, with 0.008 nM; and B6, with 0.023 nM.

In the next test the target is T2, HUMAN B7H3 (Biacore analyte). The experiment in a line: SPR, Biacore 8K, antibody captured, B7H3 as analyte, 1:1 binding. For orientation: Surface plasmon resonance follows binding to a sensor surface in real time, without labels.
For the molecule B1, binding was characterised by a dissociation constant (Kd) of 0.855 nM; the koff (commonly the rate constant with which the complex falls apart) is 0.000222 s⁻¹; the kon (as a rule, the second-order rate constant of association) came to 260000 M⁻¹ s⁻¹.
For B2 the same measures were 0.645 nM, 0.000243 s⁻¹ and 377000 M⁻¹ s⁻¹.
The corresponding values for B4 are 0.489 nM, 0.000239 s⁻¹ and 489000 M⁻¹ s⁻¹.
The corresponding values for B5 are 0.749 nM, 0.000348 s⁻¹ and 464000 M⁻¹ s⁻¹.
With B6, the affinity, expressed as Kd, was 2.31 nM; the koff was 0.00025 s⁻¹; the kon is 108000 M⁻¹ s⁻¹.

The target of a further test is T1, human CD276 protein. The experiment in a line: FACS titration on SKOV3 cells (MFI against Conc. (nM)); unit taken from the concentration axis.
Molecule B7 returned an EC50 of 11.3 nM.
Same read-out and setting: then B8, with 9.51 nM; and B9, with 5.93 nM.
B10: the midpoint of the response, the EC50, lay at 8.52 nM.
As for B11, the EC50 came out at 9.77 nM.
Same read-out and setting: then B12, with 6.37 nM; and B3, with 7.98 nM.
On the same count and under the same terms, as for B13, the figure is 9.64 nM.
